Reference: PMC6703946 (Molecular microbiology, 2019)

Biological target: T1, Spx with N-terminal His6 tag (S. aureus, UniProt P60379 1-131)
T1 sequence (looked up): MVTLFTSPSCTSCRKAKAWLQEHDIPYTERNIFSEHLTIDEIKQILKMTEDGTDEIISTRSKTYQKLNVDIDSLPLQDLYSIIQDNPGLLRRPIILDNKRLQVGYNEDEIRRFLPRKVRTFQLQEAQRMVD
Assay: native gel or EMSA

B1: αCTD (residues 245 to 314 of the RNA polymerase α subunit RpoA) (domain or fragment, S. aureus, UniProt Q2FW32 245-314, looked up)
chain: KEKVLEMSIEELDLSVRSYNCLKRAGINSVQELADKSEADMMKVRNLGRKSLEEVKYKLEDLGLGLRKED
B1: binds.
